How the values were obtained:
[1] = target: actin filaments grown from rabbit skeletal muscle actin (unlabeled ADP-F-actin) (rabbit) (UniProt P68135); assay: single-molecule TIRF microscopy
[2] = target: actin filaments grown from rabbit skeletal muscle actin (unlabeled ADP-F-actin) (rabbit) (UniProt P68135); assay: TIRF microscopy with microfluidics

“mNeonGreen–Tpm1.8 (tropomyosin isoform Tpm1.8 fused at its N-terminus to an alanine–serine extension and to mNeonGreen) (natural protein)” was tested, and the Kd of an isolated Tpm1.8 molecule on the actin filament (RI/BI) [1] was 500 µM, the RI, rate of release of an isolated Tpm from the actin filament (length) [1] was > 4.13e-08 m⋅s^-1 and the RI, rate of release of an isolated Tpm from the actin filament (molecules) [1] was > 1.25 s⁻¹. The half-life of the complex of an isolated Tpm1.8 molecule and the actin filament [1] was < 0.6 s, the BB, rate constant of binding to the domain edge at the barbed end (length) [2] was 1.19 m⋅M^-1⋅s^-1 and the BBP, combined binding rate constant at both domain edges (length) [2] was 1.83 m⋅M^-1⋅s^-1. The BBP, combined binding rate constant at both domain edges (molecules) [2] was 5.6e+07 M^-1⋅s^-1, the BP, rate constant of binding to the domain edge at the pointed end (length) [2] was 0.64 m⋅M^-1⋅s^-1 and the RB, rate of release from the domain edge at the barbed end (length) [2] was 1.98e-09 m⋅s^-1. The RB, rate of release from the domain edge at the barbed end (molecules) [2] was 0.061 s⁻¹, the RBP, combined release rate at both domain edges (length) [2] was 3.05e-09 m⋅s^-1 and the RBP, combined release rate at both domain edges (molecules) [2] was 0.094 s⁻¹. It also gave an RP, rate of release from the domain edge at the pointed end (length) [2] of 1.07e-09 m⋅s^-1, an RP, rate of release from the domain edge at the pointed end (molecules) [2] of 0.033 s⁻¹ and a critical concentration for elongation (affinity at the domain edge) [2] of 1.65 nM. For the same substance, the half-life of a molecule bound at the domain edge at the barbed end [2] was 11 s and the half-life of a molecule bound at the domain edge at the pointed end [2] was 21 s.

From article PMC7851853
